The record followed here is patent US20020165132A1 (published 2002).

The term IC50 denotes the concentration that inhibits the measured activity by half. A higher IC50 goes with lower potency.

Experiment [1] deals with SSTR2 Receptor (cloned somatostatin receptor). Description: inhibition of radioligand binding to cloned SSTR2.
In experiment [2] the target is T1, µ-receptor (guinea pig ileum preparation) (guinea pig). Description: cell-based or functional assay.
Experiment [3] addresses T1, µ-receptor (guinea pig ileum …). Description: cell-based or functional assay. This is another data set of the same source.

Positions of bridges follow the written chain, without caps; N, C: chain ends. Non-standard residues stand in square brackets, D forms with d. No end group written: not given here. AlaL = alanine half of a lanthionine (monosulfide) bridge

Chain of SSTR2 Receptor (cloned somatostatin receptor) (P30875 whole entry): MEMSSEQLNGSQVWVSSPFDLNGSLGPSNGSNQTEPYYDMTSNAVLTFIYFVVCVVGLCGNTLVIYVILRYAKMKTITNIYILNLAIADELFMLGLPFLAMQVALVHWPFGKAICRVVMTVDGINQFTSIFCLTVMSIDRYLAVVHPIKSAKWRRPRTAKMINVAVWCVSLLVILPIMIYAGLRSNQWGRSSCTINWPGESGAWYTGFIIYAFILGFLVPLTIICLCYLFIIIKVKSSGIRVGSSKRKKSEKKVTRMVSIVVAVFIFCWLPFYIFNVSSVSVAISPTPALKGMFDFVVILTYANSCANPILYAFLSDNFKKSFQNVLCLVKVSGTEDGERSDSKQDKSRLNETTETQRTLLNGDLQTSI

B1: c[AlaL3, AlaL14]-Somatostatin-14 (peptide)
chain: AG[AlaL]KNFFWKTFTS[AlaL]
modifications: bridge 3-14; not fully specified (bridges); printed as c[AlaL3, AlaL14]-Somatostatin-14
In experiment [1], B1 registered an IC50 of 0.3 nM.

B2: Tyr-c[D-AlaL-Gly-Phe-L-AlaL]-NH2 (peptide)
peptide: Y[dAlaL]GF[AlaL]-NH2
modifications: bridge 2-5; not fully specified (bridges); printed as Tyr-c[D-AlaL-Gly-Phe-L-AlaL]-NH2
Turning to B2, the “bioactivity at the GPI relative to [Leu^5]-enkephalin” value in experiment [2] turned out to be 400 fold. Further, the “GPI IC50” value in experiment [3] is 0.62 nM.

B3: Tyr-c[D-AlaL-Gly-Phe-L-AlaL]-OH (peptide)
peptide: Y[dAlaL]GF[AlaL]-OH
modifications: bridge 2-5; not fully specified (bridges); printed as Tyr-c[D-AlaL-Gly-Phe-L-AlaL]-OH
In the case of B3, the “GPI IC50” value in experiment [3] was found to be 0.45 nM.
